The chains are these.
B1: h3G7 R5 (antibody, V domains shown)
VH: QVQLVQSGAEVKKPGASVKVSCKASGYTFTGATMNWVRQAPGQGLEWMGLINPYTGGIRYNQKFKGRVTMTRDTSTSTVYMELSSLRSEDTAVYYCARIGGYYDSMDYWGQGTLVTVSS
VL: DIQMTQSPSSLSASVGDRVTITCRASESVEPRGINFLNWYQQKPGKAPKLLIYAASQASKGVPSRFSGSGSGTDFTLTISSLQPEDFATYYCQQALELPWTFGGGTKVEIK
notes: Only variable domains are tied to this name
B2: h3G7 N9 (antibody, IgG1, V domains shown)
VH: B1 VH with A32Y, M34V, N35S
VL: B1 VL with E30Q, Q57N, A58P
B3: h10H2 N14 (antibody, IgG1, V domains shown)
VH: QVQLVQSGAEVKKPGSSVKVSCKASGGTFSRYWIEWVRQAPGQGLEWMGEILPGSGVTFENEKFKGRVTITADESTSTAYMELSSLRSEDTAVYYCARKGRYYAMDYWGQGTSVTVSS
VL: EIVLTQSPGTLSLSPGERATLSCRASQSIGTSIHWYQQKPGQAPRLLIYYASESVSGIPDRFSGSGSGTDFTLTISRLEPEDFAVYYCQQTYSWPATFGQGTKVEIK
notes: also called R14; h10H2 R14
B4: h3G7 LF (antibody, V domains shown)
VH: B1 VH with S105T
VL: B1 VL
notes: Whole IgG captured on an anti-human Fc chip
B5: h3G7 AM (antibody, V domains shown)
VH: B1 VH with T55N
VL: B1 VL with E30D, Q57N, A58Q, S59A
notes: as for B4
B6: h10H2 HU (antibody, V domains shown)
VH: B3 VH with F59N, E60Y, R101T
VL: B3 VL
notes: as for B4
B7: h10H2 AM (antibody, V domains shown)
VH: B3 VH with S113L
VL: B3 VL
notes: as for B4
B8: anti-mGITR r21B6 mIgG2a (antibody, V domains shown)
VH: EAQLVESGGGLVQPGRSLKLSCEASGFTFTKYGMAWVRQAPTKGLEWVASIINSGGNTYYRDSVKGRFTISRDNAKSTLYLQMDSLRSEDTATYYCATDYYDGSYHSDVVDAWGQGVLVTVSS
VL: EIVLTQSPTTMAASPGEKVTITCRASSSLNYMHWFQQKSGTSPKPWIYDTSELASGVPDRFSGSGSGTSYSLTISSMEAEDAATYYCLQKNGYPLTFGSGTKLEIK
notes: also called m21B6 IgG2a
B9: anti-mGITR r18H12 mIgG2a (antibody, V domains shown)
VH: EVQLVESDGVLVQPGKSLTLSCAASGFTFSDYYMAWVRQAPTKGLEWVATISYDDITTFYRDSVKGRFTISRDTAKSTLYLQMDSLRSEDTATYYCTRGLQWPYVMDAWGQGALVTVSS
VL: DIVMTQSPSSLAVSAGETVTINCKSSQSLLYSGNQKSYLAWYQQKPGQSPKLLIYWASPRQSGVPDRFIGSGSGTDFTLTISSVQAEDMATYYCQQYYDAPPTFGGGTKLEIK

Substitutions are numbered along the chain they refer to.

One assay concerns the target T1, human GITR on cells (human, UniProt Q9Y5U5 26-162).
T1 sequence: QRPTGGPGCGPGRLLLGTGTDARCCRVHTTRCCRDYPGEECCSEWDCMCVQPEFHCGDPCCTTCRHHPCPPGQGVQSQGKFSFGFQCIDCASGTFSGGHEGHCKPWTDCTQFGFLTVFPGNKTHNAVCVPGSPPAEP
As to the kind of experiment: cell-based or functional assay.
With B1, the “EC50 of macrophage-mediated cytotoxicity (ADCP) of a GITR+ T cell line” value (“EC50 of macrophage-mediated cytotoxicity” below) was 0.92 nM.

As to B2, the “EC50 of macrophage-mediated cytotoxicity” value was found to be 0.692 nM.

In the case of B3, the “EC50 of macrophage-mediated cytotoxicity” value amounted to 2.01 nM.

The target of a further assay is T2, human GITR (hGITR), soluble analyte (human, UniProt Q9Y5U5 26-162).
T2 sequence: T1 sequence
The experiment in a line: SPR (Biacore T200), 37 C; antibody captured on anti-human Fc chip, GITR as analyte; 1:1 Langmuir fit. As for the experimental part: (§1) The sensor chip preparation was performed at 25° C. with a running buffer of 10 mM HEPES, 150 mM NaCl, 0.05% (v/v) Tween-20, pH 7.4. An anti-human Fc sensor chip was made by activating all flow cells of a Biacore CM4 sensor chip with a 1:1 (v/v) mixture of 400 mM EDC and 100 mM NHS for 7 minutes, at a flow rate of 10 μL/min. An anti-human Fc reagent (Goat Anti-Human IgG Fc, SouthernBiotech Catalog #2081-01) was diluted to […] in 10 mM Sodium Acetate pH 4.5 and injected on all flow cells for 7 minutes at 20 μL/min. All flow cells were blocked with 100 mM ethylenediamine in 150 mM Borate buffer pH 8.5 for 7 minutes at 10 μL/min.
(§2) Antibodies were captured from undiluted supernatants onto downstream flow cells (flow cells 2, 3 and 4) at a flow rate of 10 μL/min for 2 minutes. Different antibodies were captured on each flow cell. Flow cell 1 was used as a reference surface. Following capture of antibodies, analyte (buffer, hGITR, or cyGITR) was injected at 30 μL/min on all flow cells for two minutes. After the analyte injection, dissociation was monitored for 10 minutes followed by regeneration of all flow cells with three 1-minute injections of 75 mM Phosphoric Acid. For each captured antibody, the following analyte injections were performed: buffer, 20 nM hGITR, 200 nM hGITR, 20 nM cyGITR and 200 nM cyGITR. Buffer cycles were collected for each captured antibody for double-referencing purposes (double-referencing as described in Myszka, J. Mol. Recognit. 12:279-284 (1999). The double-referenced sensorgrams were fit globally to a simple 1:1 Langmuir with mass transport binding model.
As to B1, the equilibrium dissociation constant (Kd) was found to be 5 nM, the dissociation rate constant (koff) stood at 0.0045 s⁻¹, the kon came out at 900000 M⁻¹ s⁻¹ and the t1/2 was 2.6 min.

B4: binding was put at a Kd of 22 nM, the koff stood at 0.015 s⁻¹, the kon worked out at 690000 M⁻¹ s⁻¹ and the t1/2 stood at 0.76 min.

As to B5, binding was characterised by a dissociation constant (Kd) of 17 nM, the koff came to 0.019 s⁻¹, the on-rate (kon) is 1.1e+06 M⁻¹ s⁻¹ and the t1/2 was 0.61 min.

For B6, the dissociation constant (Kd) was more than 100 nM, the off-rate (koff) was 0.0563 s⁻¹ and the t1/2 turned out to be 0.21 min.

Turning to B7, binding was put at a Kd of 6.6 nM, the koff came to 0.00154 s⁻¹, the association rate constant (kon) was determined as 233000 M⁻¹ s⁻¹ and the t1/2 was 7.5 min.

The next assay addresses T3, cynomolgus GITR (cyGITR), soluble analyte (cynomolgus).
T3 construct: Soluble analyte in SPR; construct not described; also called cGITR
Described as above. As for the experimental part:
as §1, §2
In the case of B1, the dissociation constant Kd was 6.4 nM, the koff turned out to be 0.0038 s⁻¹, the on-rate constant (kon) came to 600000 M⁻¹ s⁻¹ and the t1/2 was found to be 3 min.

As for B4, the Kd came to 69 nM, the koff came out at 0.023 s⁻¹, the kon is 330000 M⁻¹ s⁻¹ and the t1/2 was found to be 0.51 min.

Molecule B5 gave an equilibrium dissociation constant (Kd) of 13 nM, a koff of 0.0088 s⁻¹, a kon of 670000 M⁻¹ s⁻¹ and a t1/2 of 1.3 min.

The molecule B6 yielded a Kd of more than 100 nM.

For the molecule B7, the equilibrium dissociation constant (Kd) is more than 100 nM, the dissociation rate constant (koff) was 0.011 s⁻¹ and the t1/2 stood at 1.1 min.

The target in another assay is T1, human GITR on cells. As to the kind of experiment: flow cytometry on in vitro expanded human Tregs; unconjugated antibody detected with A647 goat anti-human Fc gamma F(ab')2; MFI on antibody positive cells. The protocol: Cultured Tregs would be tracked throughout expansion to check purity. Cells were re-suspended in FACS buffer, PBS with 2% FBS for analysis using fluorophore conjugated CD markers. FACS antibodies against GITR and other CD lymphocyte markers were prepared in FACS buffer at the appropriate concentration and incubated for 30 minutes at RT. Treg purity staining utilizes intracellular targets and were processed with Foxp3 fix/perm kit (Affymetrix/eBiosciense, San Diego, Calif.). Stained cells were resuspended in fresh FACS buffer and analyzed on a FACS analyzer LSRII or Fortessa (BD Biosciences, San Jose, Calif.). To generate kinetic and binding data unconjugated antibody was titrated from 10-0.001 ug/mL (1:10 in serial dilutions, triplicate wells per concentration) and incubated at 4c for 60 minutes with 1*10e5 expanded day 12 Tregs per well. Unbound antibody was washed from cells and an A647 labeled Fc gamma (Fcγ) Fragment Specific goat-anti-human affiniPure F(ab′)₂ IgG was used to detect bound antibody (Jackson ImmunoResearch Laboratories Inc, West Grove, Pa.). Analysis of stained cells completed with FlowJo (Treestar). Geometric mean of APC was used to calculate EC50 by log transforming the molar concentration and generating a non-linear fit curve in GraphPad Prism.
Take B3: the “EC50 (read off the curve)” value was approximately 0.03 µg/mL.

The next assay has as its target T4, mouse GITR (mGITR), soluble analyte (mouse, UniProt O35714 20-153, limits assumed).
T4 construct: Soluble analyte in SPR; construct not described
T4 sequence (looked up): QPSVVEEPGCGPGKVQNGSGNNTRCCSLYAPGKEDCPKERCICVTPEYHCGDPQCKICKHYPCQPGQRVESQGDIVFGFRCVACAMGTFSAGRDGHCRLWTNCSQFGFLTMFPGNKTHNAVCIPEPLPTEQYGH
As to the kind of experiment: SPR (Biacore T200), 37 C; purified antibody captured on anti-mouse Ig chip, mGITR as analyte (300 nM top, 3-fold series); 1:1 Langmuir fit. The protocol: The sensor chip preparation was performed at 25° C. with a running buffer of 10 mM HEPES, 150 mM NaCl, 0.05% (v/v) Tween-20, pH 7.4. An anti-mouse Fc sensor chip was made by activating all flow cells of a Biacore CM4 sensor chip with a 1:1 (v/v) mixture of 400 mM EDC and 100 mM NHS for 7 minutes, at a flow rate of 10 μL/min. An anti-mouse immunoglobulin reagent (Rabbit anti-mouse immunoglobulin antibodies from Biacore Mouse Antibody Capture Kit, GE Lifesciences Catalog # BR-1008-38) was diluted to […] in 10 mM Sodium Acetate pH 5.0 and injected on all flow cells for 7 minutes at 20 μL/min. All flow cells were blocked with 100 mM ethylenediamine in 150 mM Borate buffer pH 8.5 for 7 minutes at 10 μL/min.
The experiments were performed at 37° C. using a running buffer of 10 mM HEPES, 150 mM NaCl, 0.05% (v/v) Tween-20, pH 7.4, 1 mg/mL BSA.
Purified antibodies were captured at […] onto downstream flow cells (flow cells 2, 3 and 4) at a flow rate of 10 μL/min for 2 minutes. Different antibodies were captured on each flow cell. Flow cell 1 was used as a reference surface. Following capture of antibodies, analyte (buffer, or mGITR) was injected at 30 μL/min on all flow cells for two minutes. After the analyte injection, dissociation was monitored for 10 minutes followed by regeneration of all flow cells with one 3-minute injection of 10 mM Glycine pH 1.7. A 5-membered dilution series of mGITR was analyzed using this method, where the top concentration was 300 nM and the dilution factor was 3-fold. The 33 nM dilution was run in duplicate. Buffer cycles were collected for each captured antibody for double-referencing purposes (double-referencing as described in Myszka, J. Mol. Recognit. 12:279-284 (1999). The double-referenced sensorgrams were fit globally to a simple 1:1 Langmuir with mass transport binding model.
On to B8, for which the Kd was 21 nM, the off-rate (koff) is 0.0065 s⁻¹, the on-rate (kon) was 310000 M⁻¹ s⁻¹ and the t1/2 amounted to 1.8 min.

B9: binding was characterised by a dissociation constant (Kd) of 2.2 nM, the dissociation rate constant (koff) amounted to 0.00049 s⁻¹, the kon came out at 220000 M⁻¹ s⁻¹ and the t1/2 amounted to 24 min.

For the origin of these results see patent publication US20200031947A1 (RINAT NEUROSCIENCE, published 2020).
